# Experimental data: the DeepSol protein solubility set
# Test: soluble on expression in E. coli; label from the status in PepcDB or PDB records
row,Sequence,soluble on expression in E. coli
1,MSLVKTYAFGFPKLGEKREFKRLLENYWKGKISQEELIKGMEELNLWRANLYRENVEIIPSNELSYYDFMLDTTVMVGAIPSRFGEYRGLDTYFEMARGKNALELTKWFNTNYHYLVPELEGENFKLLINRPLEDYKFFKEKGINTVPHVIGLFTFLKLSKAPKRVEEEGLPVIILEKLDTKERLEKFTKALLPVYKELLESLKNEGVNRVHFEEPALVTDLEDYDWEILNEIYSELSKVGVDLGILTYYDSVSDYDKFVNLPVKALHFDLVSNEENLKNIKEKGFPEDKELIAGIINGRQPWRANLREKVKLLEELLKVSANLVVSNSCPLYHLPVTVEPEDELPEGLKERLSFAKEKLREIRLIKEALEGKEEALREVESSEKVMTAVFAQNPEVRRRLASLSEKDFQRELPYKERDKIQRDILKLPLFPTTTIGSFPQTEDVRKMRTAYRTGKISEEEYKNFIKQKIKYAIEVQEDIGLDVLVHGEFERSDMVEYFAIKLDGIATTKHGWVLSYGSRVYRPPIIYGDVSRPAPMTLEEITYAQSLTNKPVKGMLTGPVTILNWSYYREDVPKREIAYQIALALLDEVKDLENAGIKVIQIDEPAFREGAPLKKRDWPEYFDWAVKAFRLASRAKPETQIHTHMCYSEFNEIIEYIYQMDFDVISIEASRSKGEIIEVFEKFKGWDRQIGIGVYDIHSPAIPTKEEMKAIMLRAMKVLPKELLWVNPDCGLKTRRWEEVIPALRNMVDMAKELREEVGVKVEGHHHHHH,soluble
2,MSLVLLYTPKQKTKNVQTITADILDLDYQGLGVAKINGKTWFIENALPHEKVECRILEDKRQYGHAIVKKWRVKSPERLEPKCAHFMRCGGCQGQHIPIEMQRKAKESALFKRLSKLQSEPISFQPMICGDAWAYRRRVRLSLWFNPSTKQIEMGFRQKNTNDLIPVQSCEVAEPAINYLLPKLTALLEKFSAPKQLGHIELVAADNGVAMLLRYTKNLAEIDRTLLLKFAEQEKLMLFLQSDKGIEQIYGDAPYYQFSDGIKLHFDIRDFIQVNSALNEPMVNTALDWLELSQQDCVLDLFCGMGNFTLPLAKRVKSAVGIEGVFEMVQKAAQNAERNQIKNIEFFQADLDQSFVEQPWANQSFNKILLDPPRSGAAFALNALCELKAEKILYVSCNPATLVRDAEILCNFGYKIEKSAVIDMFPHTGHLESITLFTTKEGHHHHHH,soluble
3,MSLVLVKAMARIVMKFGGTSVANLERIHNVARHVKREVDAGHEVAVVVSAMSGKTNELVDWVQNAAKVAGTNAASFYDAREYDAVVASGEQVTSGLLAITLQSMGINARSWQGWQIPIRTDNAHGAARILEIDGSDIVHRMGEGQVAVVAGFQGIGPDNRIATLGRGGSDTSAVAIAAAVKADRCDIYTDVDGVYTTDPRIEPKARRMKKIAFEEMLEMASLGAKVLQVRSVELAMVHKVRTFVRSSFEDPDAPGMGDLINPPGTLICDEDEIVEQEVVTGIAYAKDEAQISLRRVADRPGVSAAIFGPLAEAHINVDMIVQNISEDGSRTDMTFTVPSGDVAKALRVLDENKGQIGFDVAQNETGLAKVSVIGIGMRSHAGVAASAFKALAEKNINIKAITTSEIKISILIDGAYAELAVRTLHSAYGLDKAEGHHHHHH,not soluble
4,MSLVMDYEGFKKEIFKLTGIDLGSYKEKQMKRRLDSLISKNNFSGYKTYIEALKTDKKLFNEFINYMTINVSEFYRNPEQWEKLKNIILPSLLEKNSNPKIWSAACSSGDEPYTLVMILNEFLPLNKIKIIATDIDAEILVKAKNGLYTEKSIANLPKKYVEKYFKVDGDVYAINQEVKNCVEFSKHNLLADPYPKNCDLIVCRNVLIYFTEEAKAEIYKKFNRALKTGGVLFVGSTEQIILYNLYNFKPIQTFFYQKEKEGHHHHHH,soluble
5,MSLVPQGGPVLCRDEMEEWSASEAMLFEEALEKYGKDFNDIRQDFLPWKSLASIVQFYYMWKTTDRYIQQKRLKAAEAEGHHHHHH,not soluble
6,MSLVTQQALPPVVSSAASPSPQASAPLPTDKTAIAIVLQGFGYSDALTYDVLSRIPAPVAVGISPYVSNISDIIARAHASHREVYVTLPMQSAHPERVDEGPHALGYGNSAADDQRELEWCLSRAAGAEGLTDASENGDDQPGGGYATSPDFSPIASAISSKGLLYLAGSAQDGRRTRGMTATAWIDGDTDAATLDSRLAALLPQDGKPAKILLMVGPITPVMIDRLANWLKGPAAQNFVVVPPSAFADSGISNDQAANLSPSNPVAPLEGHHHHHH,soluble
7,MSLVTSMTFYETRFPEDISYGSTGGPEFTTSIIETNNGYEYRKINISYPRNKYNIMYSVKSEEELLKLINFFYIHKGKAIGFRFKDWADYKAIQQKIGIGDNHQTTFQLVKTYKVDQFSYIRTITKPVINTVKIYYNDSIKNNGFSVNLSNGQIKFDIAPKDGIEIFADYEFDVPVRFDSDYLPYSIDNYKQYNCNNITLIEVKTEGHHHHHH,not soluble
8,MSLVVFLLLKSQFLYGEDFKLRKGTLIIEEGIIKGFTDEHNEREVIEFKGLVIPSLINAHTHIADNSIKDIGINKTLDELVKPPNGLKHRYLTECSDDLLAEGMKLGLGDMREHGIKYFCDFRENGVRGISLLNKALKCYDYPKAIILGRPIKVDKDEIEEVLKVSNGLGLSGANEFKDDELKLIFKIFKKFKEKDDKKLFAIHAAEHRGAVEYSLNKYGMTEVERLIDLKIKPDFIVHGTHLTDNDLELLKENNIPVVACVRANLSFNVGMPKLNELNDNLLVGIGTDNFMANSPSIFKEMDFIYKLYHIEPKDILRMATINNAKILKLENVGLVDEGFKAVFTFIKPTNAILFSKNIIASVVTRCEKGDVVDFSLMENEEEGHHHHHH,soluble
9,MSLWYNRAMKHFDTIVIGGGPAGMMATISSSFYGQKTLLIEKNRKLGKKLAGTGGGRCNVTNNGSLDNLLAGIPGNGRFLYSVFSQFDNHDIINFFTENGVKLKVEDHGRVFPASDKSRTIIEALEKKITELGGQVATQIEIVSVKKVDDQFVLKSADQTFTCEKLIVTTGGKSYPSTGSTGFGHEIARHFKHTITDLEAAESPLLTDFPHKALQGISLDDVTLSYGKHVITHDLLFTHFGLSGPAALRMSSFVKGGEVLSLDVLPQLSEKDLVTFLEENREKSLKNALKTLLPERLAEFFVQGYPEKVKQLTEKEREQLVQSIKELKIPVTGKMSLAKSFVTKGGVSLKEINPKTLESKLVPGLHFAGEVMDINAHTGGFNITSALCTGWVAGSLHYDEGHHHHHH,soluble
10,MSLYDTILFPTDGSNAAESVLEYALQIASEHEATIHILNVADTGRDSVTTIRGEVIDVLETEGERIVAEATQYAKDEGVPVVSAVLQGDPHKTIVDYSQQSDSDCIVMPTHGQRGIQRILLGSVTERVINTAEVPVIAVNPDRDRPLVYPPQHVLVPTDGSRGADLALTEGIAVARATDATLHLLHVVETGGLGPDARSVLKEGELTERANEIMAGATEKIDDTSLDTVTSVIEHGDPSKVICDYIDENEVDLAVMGTHGQTDFSRYVMGGVSAKLVRKSPVPVTWVREPESEGHHHHHH,soluble
11,MSLYENKKVVAIGGGHGLGRMLAALKVFGSNATGIVTTTDNGGSTGRIRHCQGGIAWGDTRNCINQLITEPSISSMMFEYRFKGAGELNGHNLGNLMLTALDNLSVRPLDAINLIRNMLKVDVNILPMSEHPSDLAALAMDGKWVTGETSVDEMTQDLRRLDLAPEVPATKEAVTAIQDADCVILGPGSFLTSVMPPLLLPELGKAIARNQTAKVIFVENLSPEYGPAGRMSLEQKLEWCERACQGRKIDVVLGHHPHPELEQRWNFVTRDLASANRDWRHDRQKLRQAIEEQLMNLEHHHHHH,soluble
12,MSLYEWLNALPKAELHLHLEGTLEPELLFALAERNRIALPWNDVETLRKAYAFNNLQEFLDLYYAGADVLRTEQDFYDLTWAYLQKCKAQNVVHVEPFFDPQTHTDRGIPFEVVLAGIRAALRDGEKLLGIRHGLILSFLRHLSEEQAQKTLDQALPFRDAFIAVGLDSSEVGHPPSKFQRVFDRARSEGFLTVAHAGEEGPPEYIWEALDLLKVERIDHGVRAFEDERLMRRLIDEQIPLTVCPLSNTKLCVFDDMSQHTILDMLERGVKVTVNSDDPAYFGGYVTENFHALQQSLGMTEEQARRLAQNSLDARLVKEGHHHHHH,soluble
13,MSLYFLLQKVILPNIDLCTEEQLYFRTQGGKYNYTSRNLLVPRHKVAYFDTFFNAFSIKKWKKYTTLTSLFLRVNIIGRGTITVRHKENGVIRVLKQIDFKSSCNISDEIEIDISKINFGYIYVEWQSDEDSVLNGFELLTKDHVSKSSMALVITTYNRKEAVTKTINRINKTLLTQSEFKDRFKLIVVNNGEAINHPSGNGIIVINNENLGGSGGFMRGLIEAGKINDVKHVIFMDDDGSCEIESICRTHAFLLMAKDKNTVVTGCMLFEDNPAIIHESGAIWHRDFLHYPDKHYLDAREIDSLDTFDNERKIGYGGWWFFAFNINAIEYYSFPFFVRGDDLLFGYMHKKHNIVTLNGVASWQMDFERKISVLNSYLNFRTVAVPALISKREGHHHHHH,not soluble
14,MSLYKADMLGDAYEYLIKQFADDAGKKGGEFYTPKAVVQLVVELIDPRPGHSVYDPTCGSGGMLVESAHHVSGLPDGTLMGKPNVLLYGQEKNLGTWAIAKLNLYLHNMHASIERGDTLVEPKHLDGDYLKTFDRVIANPPFSAKSWWTPLELSNENEQENGKKVKAPNYKQVSDPYGRLVYGVPPRGYADLAFAQHMLASLKADGRMGVILPHGVLFRSGEEGKIREGLLFGTGAASGNQPGDVIEAIVGLPSALFYNTGIPACVLILNKQKPSALKDKVIIIDGSRDYLEGKAQNSLHAEDILRIVSTHKAAFEQQVEVENYCRLVTLDEIRSNDGNLNIVRYIDNGESDEVVNVAATLAHMATLAKEEAQIDQRLNRYLMELGLLETGEGHHHHHH,not soluble
15,MSLYKVYGDYQSGNCYKVKLMLSLLGRPYEWHPVDILKGETETPEFLAMNPNGKVPVLELEDGSYLWESNAILNYLADGSEFLPSEPRLRTQVLQWQFFEQYSHEPYIAVARFIQFYLGLPDERLDEYRKLHKGGYKALKVMERQLQMTPYLVGEQYSIADVALYAYTHVAQQGGFDLADYPAVRAWLERVSSHPRHVPMVGEGHHHHHH,soluble
16,MSLYMTIGRIFDLSVGKYPNKEALVEPEKNIRWTYKQWDEQINKTAHALLEEGVRKGDTVSVYLYNCHEFVNVYLACAKIGAIFNPINFRLKAKEVSYILQDASSKVVVFEKAVESTVAIIERDFPNTSFWSIENDKPSYASSYHEKVNEASSEKVNIEIDEMDYCSMLYTSGTTGHPKGVLHRHREMAEHSMICTYFLKYNRDSVGLVVAPLYHCGELNAGIIPRIQVGGKNVILHHFDTETVLHTIQEEKITTFFAAPTMWNMLLQKDLAQYDLTSMKIGIYGGAAMAPALVKECKERLYIDLVQIYGMTEMGPVVAFLVEEDQITKAGSAGTPCFSHEVRIVKPNEDAPAEPDDVLPPYEVGEIILRGPTMMAGYHNREEANKKSMYKGWYHSGDLGYFDKDGYLFVADRVDDMVISGGVNIYPREIEDFLHSHPGILDVAVLGEPDELWGERVVAVIVKKDETITEADLETYCKESDELADYKRPRHYLFVDELPRNASGKLQKFVLRESLKGAKEGHHHHHH,soluble
17,MSLYPKAYIDYLVEFHATRDYFECHEILEEYWKEDPPKKRKRYWVGFIQLAVALYHHRRQNTAGAKRLMANSIRILQAEHRAVEDLGLDHGRLLELMQSVYEQIETVSAYKSIILPIKDEKLEEACRIECRKKKYTWGQPSALSNIFLIDKHRLRDRTDVIREREKEIERRKKSRDEGHHHHHH,soluble
